Reference: PMC7176292

Key:
[1] = target: human μ-opioid receptor (μOR), wild type, with HA signal sequence at the N terminus and LgBiT at the C terminus (modified pfastbac1) (human) (UniProt P35372); experiment: split reporter (BiFC, NanoBiT); NanoBiT on Sf9 membranes co-expressing μOR-LgBiT, Gαi1, Gβ1-SmBiT and Gγ2, in PBS pH 7.4; dose-response of FD-3, 15 min at room temperature, luminescence; normalized to DAMGO
[2] = target: human μ-opioid receptor (μOR), wild type, with HA signal sequence at the N terminus and LgBiT at the C terminus (modified pfastbac1) (human) (UniProt P35372); experiment: split reporter (BiFC, NanoBiT); NanoBiT on Sf9 membranes co-expressing μOR-LgBiT, Gαi1, Gβ1-SmBiT and Gγ2, in PBS pH 7.4; dose-response of fentanyl, 15 min at room temperature, luminescence; normalized to DAMGO

Sequence of Gi protein complex (Gαi1, Gβ1 with SmBiT at the C terminus, Gγ2) (P63096 whole entry): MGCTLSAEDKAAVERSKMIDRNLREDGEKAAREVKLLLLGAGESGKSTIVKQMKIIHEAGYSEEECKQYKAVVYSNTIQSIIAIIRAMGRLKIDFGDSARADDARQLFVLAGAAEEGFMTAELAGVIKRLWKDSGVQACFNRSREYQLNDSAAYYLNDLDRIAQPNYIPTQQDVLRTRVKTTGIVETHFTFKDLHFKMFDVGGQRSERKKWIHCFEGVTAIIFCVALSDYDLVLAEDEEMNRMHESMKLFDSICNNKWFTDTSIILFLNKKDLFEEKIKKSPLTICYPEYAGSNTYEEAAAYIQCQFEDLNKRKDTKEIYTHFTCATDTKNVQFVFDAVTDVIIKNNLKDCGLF
Sequence of Gi protein complex (Gαi1, Gβ1 with SmBiT at the C terminus, Gγ2) (P62873 whole entry): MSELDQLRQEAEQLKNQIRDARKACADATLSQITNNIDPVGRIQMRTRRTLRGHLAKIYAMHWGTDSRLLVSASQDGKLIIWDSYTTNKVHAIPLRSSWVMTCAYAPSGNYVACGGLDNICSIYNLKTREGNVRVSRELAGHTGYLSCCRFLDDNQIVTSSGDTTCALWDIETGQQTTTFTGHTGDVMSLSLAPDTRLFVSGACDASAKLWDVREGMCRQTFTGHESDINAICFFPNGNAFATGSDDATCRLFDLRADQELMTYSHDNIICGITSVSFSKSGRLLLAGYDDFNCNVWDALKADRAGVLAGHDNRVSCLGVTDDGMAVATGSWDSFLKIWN
Sequence of Gi protein complex (Gαi1, Gβ1 with SmBiT at the C terminus, Gγ2) (P59768 whole entry): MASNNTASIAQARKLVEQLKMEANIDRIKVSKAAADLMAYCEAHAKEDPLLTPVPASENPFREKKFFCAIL

**Q.** With “Gi protein complex (Gαi1, Gβ1 with SmBiT at the C terminus, Gγ2) (from UniProt P63096 1-354; P62873 1-340; P59768 1-71)” as the substance, how does the maximal coupling efficiency relative to morphine [1] read?
**A.** 67%

**Q.** And the maximal Gi coupling (normalized to DAMGO) [2]?
**A.** > 55%
